The values below come from US20220403028A1 (NUMAB THERAPEUTICS, published 2022).

What is called Kd is the constant that tells how readily two partners part at equilibrium.

Changes are numbered by the printed parent chain.

The chains are these.
B1: PRO389 (IL23R×CD3 1st gen Numab) (bispecific antibody)
chain: DIQMTQSPSSLSASVGDRVTITCQASENIYSFLAWYQQKPGKAPKLLIYSASKLAAGVPSRFSGSGSGTDFTLTISSLQPEDFATYYCQQTNRYSNPDIYNVFGTGTKVTVLGGGGGSEVQLVESGGGLVQPGGSLRLSCAASGFPLSSYAMIWVRQAPGKGLEWIGMILRAGNIYYASWVKGRFTISRDNSKNTVYLQMNSLRAEDTAVYYCARRHYNREGYPIGIGDLWGQGTLVTVSSGGGGSGGGGSGGGGSGGGGSDIQMTQSPSSLSASVGDRVTITCQSSESVYNNKRLSWYQQKPGKAPKLLIYTASSLASGVPSRFSGSGSGTDFTLTISSLQPEDFATYYCQGEFTCSNADCFTFGTGTKVTVLGGGGGSEVQLVESGGGLVQPGGSLRLSCAASGIDFNSNYYMCWVRQAPGKGLEWIGCIYVGSHVNTYYANWAKGRFTISRDNSKNTVYLQMNSLRAEDTAVYYCATSGSSVLYFKFWGQGTLVTVSS
B2: 28-21-D09-sc18 (scFv)
scFv: DIQMTQSPSSLSASVGDRVTITCQSSQSVFSNNYLAWYQQKPGQSPKRLIYSASTLASGVPSRFSGSGSGTHFTLTISSLQPEDFATYYCLGSYACSSADCYVFGTGTKVTVLGGGGGSGGGGSGGGGSGGGGSEVQLVESGGGLVQPGGSLRLSCAASGFSLSSYDMSWVRQAPGKGLEWIGASYASGPTYYASWAKGRFTISRDNSKNTVYLQMNSLRAEDTAVYYCARGGWTGTSHSNIWGQGTLVTVSS
B3: 28-21-D09-sc19 (scFv)
scFv: B2 scFv with H72D
B4: 28-21-D09-sc16 (scFv)
scFv: B2 scFv with H72D, V226T, Y228F
B5: 28-21-D09-sc15 (scFv)
scFv: B2 scFv with V226T, Y228F
B6: 28-21-D09-sc04 (scFv)
scFv: B2 scFv with Y38F, H72D, E180A, V226T, Y228F

The target of one experiment is human CD3ε on T cells (human, UniProt P07766 23-207). The experiment is described as follows: cell-based or functional assay.
Sequence of human CD3ε on T cells (P07766 23-207 limits assumed): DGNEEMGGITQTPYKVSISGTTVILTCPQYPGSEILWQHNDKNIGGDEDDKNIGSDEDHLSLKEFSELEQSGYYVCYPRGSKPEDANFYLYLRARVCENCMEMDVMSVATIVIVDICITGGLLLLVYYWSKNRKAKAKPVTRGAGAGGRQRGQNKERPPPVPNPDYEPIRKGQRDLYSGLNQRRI
Consider B1, for which the “EC50 of specific target cell lysis (IL-23R-expressing CHO-K1 target cells, human PBMCs, flow cytometry cytotoxicity assay)” value was 0.0053 nM.

The next experiment addresses cynomolgus CD3ε (recombinant, coupled to the SPR chip) (cynomolgus (Macaca fascicularis)) (UniProt Q95LI5). Kind of experiment: SPR (Biacore T200), CD3ε amine-coupled to CM5 chip, scFv as analyte, 1:1 Langmuir fit. For orientation: In SPR one partner is held on a chip, and binding of the other changes the refractive index at the surface.
Take B2: the Kd was 14.2 nM.

For B3, the equilibrium dissociation constant (Kd) was determined as 19.5 nM.

As to B4, the dissociation constant Kd was 16.6 nM.

For the molecule B5, the dissociation constant (Kd) worked out at 13.7 nM.

Turning to B6, the Kd worked out at 4.78 nM.
